Assay results published in the nanobody polyreactivity screen of Harvey et al. (2022).

Assay: yeast display, Sf9 membrane polyspecificity reagent, FACS + sequencing; frameworks hold sequencing errors
In short: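 Using colony PCR, genes from sorted yeast display clones were amplified, then sequenced on MiSeq at 2 × 250 and filtered by CDR length. The clones had been stained with 10% biotinylated, detergent-solubilized Sf9 membrane reagent for 1 hour at 4 °C and sorted by FACS into low and high (top ~1%) gates on anti-HA and streptavidin fluorescence. Polyreactivity labels come from the gate of origin.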

| Sequence | polyreactivity (PSR sort gate) |
| --- | --- |
| QVQLVESGGGLVQAGGSLRLSCAASGYIFDVYAMGWYRQAPGKERELVATISSGTGITKYADSVKGRFTISRDNAKNTVYLQMNSLKPEDTAVYYCAADYASLSWLGFYYWGQGTQVTVSS | low polyreactivity |
| QVQLVESGGGLVQAGGSLRLSCAASGFTFYGYAMGWYRQAPGKERELVAAISSSGGRTYYADSVKGRFTISRDNAKNTVYLQMNSLKPEDTAVYYCAADYTSRDYYYWGQGTHVTVSS | high polyreactivity |
| QVQLVESGGGLVQAGGSLRLSCAASGFTFYKYAMGWYRQAPGKERELVAGIRRGGTNYADSVKGRFTISRDNAKNTVYLQMNSLKPEDTAVYYCAADVRPYYSAYRGRYYYWGQGTQVTVSS | high polyreactivity |
| QVQLVESGGGLVQAGGSLSLSCDASGSTFYYNAMGWYRQAPGKERELVAAITFTGGSTYADSVKGRFTISRDNAKNTVYLQMNSLKPEDTAVYYCSATIQGHDYLGTGYDYWGQGTQVTVSS | low polyreactivity |
| QVQLVESGGGLVQAGGSLRLSCAASGNTYYGNTKGWYRQAPGKERELVAAITSGGSTYYADSVKGRFTISRDNAKNTVYLQMNSLKPEDTAVYYCNVVFYEYSSVSYDYWGQGTQVTVSS | high polyreactivity |
| QVQLVESGGGLVQAGGSLRLSCAASGSTFLYYAMGCYRQAPGKDRELVARITTRVGRTYYADSVKGRFTISRDNAKNTVYLQMNSLKPEDTAVYYCNAPYLKSRFRAYYHWGQGTQVTVAS | high polyreactivity |
| QVQLVESGGGLVQAGGSLRLSCAASGITFRTNTMGWYRQAPGKERELVAAITRSGVTTYYADSVKGRFTISRDNAKNTVYLQMNSLKPEDTAVYYCAAKSFYAHYDYWGQGTQVTVSS | high polyreactivity |
| QVQLVESGGGLVQAGGSLRIICAASGRIFSNYAMGWYRQAPGKERELVAAITYSTSRTYYADSVKGRFTISRDNAKNTVYLHMNSLKPEDTAVDYCAAGRGPYYRSRTPLYYWGQGTQVTVSS | high polyreactivity |
| QVQLVESGGGLVQAGGSLRLSCAASVSTFDSYVMGWYRQAPGKERELVAAITSGGSTYYADSVKGRFTISRDNAKNTVYLQMNSLKPVDTAVYYCNRDERVGKWGYYWGQGTQVTVSS | low polyreactivity |
| QVQLVESGGGLVQAGGSLRLSCAASGSIILAYAMGWYRQAPGKERELVAAITGSGGRTYADSVKGRFTISRDNAKNTVYLEMNSLKPEVTAVYYFAAYYYGNWQGYYWGQGTQVIVSS | low polyreactivity |
| QVQLVESGGGLVQAGGSLRLSCAASGITFGRNTMGWYRQAPGKERELVAAIRSGGSTNYADSVKGRFSISRDNAKNTVYLLMNSLKPEDPAVYYWNAQPWVRFWPYDYWGQGTQVTVSS | low polyreactivity |
| QVQLVESGGGLVQAGGSLRLSCAASGSILTSYAMGWSRQAPGKERELVAAISTTGGSTYYADSVKGRFTISRDNAKNTVYLQMNRLKPEDSAVYYCAAAGRTYRPGTGGYGYWGQGTQVTVSS | low polyreactivity |
| QVQLVESGGGLVQAGGSLRLSCAASGSTFPYYAMGWYRQAPGKERELVAAISRRGTSTYYADSVKGRFTISRDNAKNTVYLQMNSLTPEDTAVYYCAAVGGAFPNRYYWGQGTQVTVSS | high polyreactivity |
| QVQLVESGGGLVQAGGSLRLSCAASGRIFGYNALGWYRQAPGKERELVAAINSDGSKNYADSVKGRFTISRDNAKNTVYFQMNSLNPEDTALYYCNKELYPVGDYEYWGEGTQVTVSS | low polyreactivity |
| QVQLVESGGGLVQAGGSLRLSCAASGGNFGRYAMGWYRQAPGKERELVADINWSGGANTNYADSVKGRFTISRDNAKNTVYLQMNSLKPEDTAVYYCAAPSYFTHSGRFDYWGQGTQVTVSS | low polyreactivity |
| QVQLVESGGGLVQAGGTLRLSCAASGRTYYGYAMGWYRQATGKERQLVAAIRSTTGSTYYADSVKGRFTISRDNAKITVYLQMNSLKPEDTAVYYCASAYPFYADMDYWGQGTQVTVSS | low polyreactivity |
| QVQLVESGGGLVQAGGSLRLICAASGGIFTRNDMGWYRQAPGKERELVAGISWRGGSTYYADSVKGRFTISRDNAKNTVYLQMNSLKPEDTAVYYCAALDTGGERDYWGQGTQVNVSS | low polyreactivity |
| QVQLVESGGGLVQAGGSLRLSCAASGSIIPLYAMGWYRQAPGKERELVATINRRTGSTYADSVKGRFTISRDNAKNTVYLQMNSLKPEDTAVYYCNAADNYVRFYKTRIYNYWGQGTQVTVSS | high polyreactivity |
| QFQLVESGGGLVQAGGSLLLSCAASGRTFDWYAMGWYRLAPGKERELVAGISGSSGRTYYADSVKGRFTISRDNAKNTVYLQMNSLKPEDTAVYYCAADFSFWKLVYYQSGRYDYWGQGTQVTVSS | high polyreactivity |
| QVQLVESGGGLVQAGGSLRLSCAASGIIFYFYAMGWYRQAPGKERELVAAITSGGSTNYADSVKGRFTISRDNAKNTVYLQMNSLKPEDTAVYYCAADRDYYFFRYDYWGQGTQVTVSS | low polyreactivity |
| QVQLVESGGGLVQAGGSLRLSCAASGSILPYYAMGWYRQAPGKERELVATITDGTDTYYADSVKGRFTISRDNAKNTVYLQMNSLKPEDTAVYYCNADGYVYYLHEDYWGQGTQVTVSS | low polyreactivity |
| QVQLVESGGGLVQAGGSLRLSCAASGRTFLVYAMGWYRQAPGKERELVADITSGGSTDYADSVKGRFTISRDNAKNTVYLQMNSLKPEDTAVYYCATDLWRWYGWFDYWGQGTQVTVSS | low polyreactivity |

| Sequence | polyreactivity (PSR sort gate) |
| --- | --- |
| QVQLVESGGGLVQAGGSLRLSCAASGIIFKYYAMGWYRQAPGKERELVAAISSRSGRTYYADSVKGRFTISRDNAKNTVYLQMNSLKPEDTAVYYCNVQVQRSYPYGYWGQGTQVTVSS | high polyreactivity |
| QVQLVESGGGLVQAGGSLRLSCAASGSIFKKNAMGWYRQEPGKERELVAAITRRGASTYYADSVKGRFTISRDNAKNNVYLQMNSLKREDTAVYYCAAPGKIGASFDNYYYWGQGTQVTVSS | high polyreactivity |
| QVRLVESGGGLVQAGGSLRLSCAASGSIFAPYAMGWYRQAPGKERELVATIRTTGDSTYYADSVKGRFTISRDNAKNTVYLQMNSLKPEDTAVYYCAKSEPLVVGVSPWYQVDYCGQGTQVTVSS | low polyreactivity |
| QDQLVESGGGLVQAGGSLRLSCAASGFTFNANAMGWYRQAPGKERELVAAITRSGGRTYYADSVKGRFTISRDNAKNTVYLQMNSLKPEDTAVYYCANLVTNGRYDSWGQGTQVTVSS | high polyreactivity |
| QVQLVESGGGLVQAGGSLRLSCAASGGIFRGYAMGCYRQAPGKERELVATITFSGTSTYYADSVKGRFTISRDNAKNTVYLQMNSLKPEDTAVYYCNADWWFKYDYWGQGTQVTVSS | low polyreactivity |
| QVQLVESGGGLVQAGGSLSLSCSASGSIFAGYARGWYRQAPGKERELVAAISVSGGGTYYADSVKGRFTISRDNAKNTVYLQMNSLKPEDTAVYYCAATGSSRYGRNYYSWGQGTQVTVSS | high polyreactivity |
| QVQLVESGGGLVQAGGSLRLSCAASGRIFDTYAMGWYSQAPGKERELVASISIDGSTYYADSVKGRFTISRDNAKNTVYLQMNSLKPEDTAVYYCNADGRYYTVRFEYWGQGTQVTVSS | low polyreactivity |
| QVQLVESGGGLVQAGGSLRLSCAASGSTFYGKAMGWYRQAPGKERELVDTISWSGGSTYYADSVKGRFTISRDNAKNTVYLQMNSVKPEDTAVYYCNAEITTKSLVTRYSWYGGDYWRQGTQVTVSS | low polyreactivity |
| QVQLVESGGGLVQAGGSLRLSCAASGSIFGWYAMGWYRQAPGKERELVADISYIGVSTYYADSVKGRFTISRDNAKNTVYLQMNTLKPEDTAVYYCATYYLLYPIPYGYPRSPEYEYWGQGTQVTVSS | low polyreactivity |
| QVQLGESGGGLVQAGGSLRLSCAASGLIFVWNDMGWYRQAPGKEGELVADISDGSTYADSVKGRFTISRDNAKNTVYVQMNRLQPEHTAVYYCNKDNHDVELPVEFEYWGQGTQVTVSS | high polyreactivity |
| QVQLVESGGGLVQAGGSLRLSCAASGRTFRKYAMGWYRQAPGKERELVAAISWSGGSTYYANSVKGRFTISRDYAKNTVYLQMNILKPEDTAVYYCAAVPVHTGSLYWGFTTGYDYWGQGTQVTVSS | low polyreactivity |
| QVQLVESGGGLVQAGGSLRLSCAASGFTFKYYAMGWYRQAPGKERELVAVISTRGTNTYYADSVKGRFTISRDNAKNTVYLQMNSLKPEDTAVYYCAAVLGGNSRLDYWGQGTQVTVSS | high polyreactivity |
| QVQLVESGGGLVQAGGSLRLSCAASGGIFWHYTMGWYRQAPGKERELVAAITRRGGSTYYADSVKGRFTISRDNAKNTVYLQMNSLKPEDTSVYYGAAVFEWTSRGSYYRYYYWGQGTQVTVSS | low polyreactivity |
| QVQLVESGGGLVQAGGSLRLSCAASGRIFAPYAMGWYRQAPGKEREFVATITHSGGRTYYADSVKGRFTISRDNAKNNVYLQMNSLKPEHTAVYYCAAGYGYNRLYYGVDYWGQGTQVTVSS | low polyreactivity |
| QVQLVESGGGLVQAGGSLRLSCAASGFTLYRYAMGWYRQAPGKERELVAAISNSGGSTYYADSVKARFTISRDNAKNTVYLQMNSLKPEDTAVYYCAADPGYNVYGYYYWGQGTQVTVSS | high polyreactivity |
| QVQLVESGGGLVQAGGSLRLSCAASGNIFLYYAMGWYRQAPGKERELVADIDSSGASTYYADSVKGRFTISRDNAKNTVYLQMNSLKPEDTAVYNCAARAERVREYNYWGQGTQVTVSS | low polyreactivity |
| QVQLVESGGGLVQAGGSLRLSCAASGSTFEDNAMGWYRQAPGKERELVAAITSGGNTYYADSVKGRFTISRDNAMNTVYLQMNSLKPDDTAVYYCNAVPFYYDFDYWGQGTQVTVSS | low polyreactivity |
| QVQLVESGGGLVQAGGSLRLSCAASGRIFLRYAMGWYRQAPGKEREFVAAISYVGGSTYYADSVKGRFTISRDNAKNTVYLQMNILKPEDTAVYYCNADVPKSLLLYYPWGYGFWGQRTQVTVSS | low polyreactivity |
| QVQLVESGGGLVQEGGSLRLSCAASGLTFPYYAMGWYRQAPGKERELVAGISDSGGSTYYADSVKGRFTISRDNAKNTVYVQMNSLKPEDTAVYYCAAQGVDSYYENVYWGQGSQVTVSS | high polyreactivity |
| QVQLVESGGGLVQAGGSLRLSCAASGFIFYGYTMGWYRQAPGKERELLARISRRGGSTYYADSVKGRFTISRDNAKNTVYLQMNSLKPEDTAVYYCATDDARRGYGYGYWGQGPQVTVSS | low polyreactivity |
| QVQLVESGGGLVQAGGSLRLSCAASGFTFESYAMGWYRQAPGKERELVAAISWNGGSSYYADSVKGRFTISRDNAKNTVYLQMNSLKPEDTAVYYCAARGRAPRFRRIGYDYWGQGTQVSVSS | high polyreactivity |
